Here are results for one substance from PMC12172977.

For the data set, the target named is CCHFV nucleocapsid protein (N protein) (Crimean-Congo hemorrhagic fever virus (strain 10200?)) (UniProt P89522). Put plainly: filter binding.
Chain of UniProt P89522 (P89522 whole entry): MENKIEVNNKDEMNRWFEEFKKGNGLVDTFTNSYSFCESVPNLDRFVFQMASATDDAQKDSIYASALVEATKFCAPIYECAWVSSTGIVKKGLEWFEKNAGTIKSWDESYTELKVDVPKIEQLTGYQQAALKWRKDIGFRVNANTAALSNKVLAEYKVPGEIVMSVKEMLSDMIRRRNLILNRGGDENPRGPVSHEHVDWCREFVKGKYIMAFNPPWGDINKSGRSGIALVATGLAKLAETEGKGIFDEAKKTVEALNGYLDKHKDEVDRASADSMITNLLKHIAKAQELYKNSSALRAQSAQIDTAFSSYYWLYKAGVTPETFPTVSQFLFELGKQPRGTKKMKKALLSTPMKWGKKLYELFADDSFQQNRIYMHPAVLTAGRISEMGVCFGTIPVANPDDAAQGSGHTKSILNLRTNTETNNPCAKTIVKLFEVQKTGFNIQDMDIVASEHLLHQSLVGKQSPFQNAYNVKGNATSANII

“Luc mRNA-1 (WT S-segment 5' UTR + luciferase ORF + truncated S 3' UTR)” had a dissociation constant Kd of 42 nM.
